This is an account of results in publication PMC3769240.

The target of this test is Non-structural NS1 protein of human respiratory syncytial virus (hRSV) strain A (human respiratory syncytial virus strain A) (UniProt P0DOE9). The test is described as follows: dynamic light scattering; NS1SOs made by heat (10 minutes at 70°C in Tris 10 mM pH 8, DTT 1 mM); measured at 20°C.

As for “Non-structural NS1 protein of human respiratory syncytial virus (hRSV) strain A (from UniProt P0DOE9 1-139) (natural protein)”, the stoichiometry N (NS1 monomers per molecule of oligomer) was determined as 149.
